Data: patent US20210070876A1 (LES LABORATOIRES SERVIER, published 2021)

How the values were obtained:
[1] = biological target: T1, His-tagged human CD73 ECD (human, UniProt P21589 27-549); test: SEC-MALS, mAb:CD73 1:1
T1 construct: runs as a homodimer of about 124-125 kDa in SEC-MALS; also called CD73-His; CD73-His ECD antigen
T1 sequence: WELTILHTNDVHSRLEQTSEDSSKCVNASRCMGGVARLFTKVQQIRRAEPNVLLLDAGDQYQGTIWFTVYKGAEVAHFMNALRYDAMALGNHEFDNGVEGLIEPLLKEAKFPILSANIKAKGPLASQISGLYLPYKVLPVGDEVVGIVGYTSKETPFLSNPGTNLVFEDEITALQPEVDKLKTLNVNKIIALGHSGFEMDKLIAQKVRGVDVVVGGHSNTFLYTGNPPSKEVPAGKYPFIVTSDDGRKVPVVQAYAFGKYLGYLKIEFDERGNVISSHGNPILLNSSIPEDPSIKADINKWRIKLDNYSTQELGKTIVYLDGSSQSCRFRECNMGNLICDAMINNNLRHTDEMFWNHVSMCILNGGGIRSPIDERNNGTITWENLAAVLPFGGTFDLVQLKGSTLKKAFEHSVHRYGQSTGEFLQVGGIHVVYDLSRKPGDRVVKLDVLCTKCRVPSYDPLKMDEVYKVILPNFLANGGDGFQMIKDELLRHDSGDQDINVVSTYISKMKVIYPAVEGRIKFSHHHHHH
Method: (§1) Anti-CD73 antibodies and His-tagged CD73 were analyzed in different ratios as well as individually to analyze the size of complexes formed between CD73 homodimer and anti-CD73 antibodies. Samples were prepared by mixing […] of CD73-His with 900, 450, 90 or 0 μmol of antibody diluted into PBS, pH 7.4. Samples were incubated for 30 min at room temperature followed by separation using a UHPLC UltiMate 3000 (Thermo Scientific) and SEC X-Bridge column (Waters) at a flow rate of 1.2 mL/min. Sample running buffer was 0.01 M Citrate, 250 mM L-Arginine.HCl, pH 6.0. Following HPLC separation, all samples were analyzed using a MiniDAWN TREOS MALS detector (Wyatt) and Optilab T-rEX refractive index detector (Wyatt). Data plots were generated using Graph Pad Prism.

[2] = biological target: T1, His-tagged human CD73 ECD; test: SEC-MALS, mAb:CD73 0.1:1
Method: as §1

mouse CD73 = biological target: T2, mouse CD73 (mouse, UniProt Q61503 29-549, limits assumed); test: not described (statement in the methods of Example 22)
T2 construct: Only named in a sentence on cross-reactivity
T2 sequence (looked up): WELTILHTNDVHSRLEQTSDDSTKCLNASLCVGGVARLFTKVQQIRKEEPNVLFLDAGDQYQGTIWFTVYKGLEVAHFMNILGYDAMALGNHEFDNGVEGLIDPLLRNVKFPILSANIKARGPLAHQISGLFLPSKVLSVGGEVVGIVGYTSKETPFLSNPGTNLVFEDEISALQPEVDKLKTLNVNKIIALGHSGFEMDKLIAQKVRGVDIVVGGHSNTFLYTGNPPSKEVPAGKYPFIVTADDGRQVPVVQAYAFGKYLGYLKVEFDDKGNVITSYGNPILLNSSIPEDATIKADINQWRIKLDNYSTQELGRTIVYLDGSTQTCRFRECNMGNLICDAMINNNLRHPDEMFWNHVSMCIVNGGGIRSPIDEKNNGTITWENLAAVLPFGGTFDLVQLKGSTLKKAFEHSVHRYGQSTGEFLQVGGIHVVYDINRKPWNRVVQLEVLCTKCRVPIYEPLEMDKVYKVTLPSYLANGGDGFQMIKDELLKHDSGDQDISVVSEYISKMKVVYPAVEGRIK

[3] = biological target: T3, human CD73 expressed on cells (human, UniProt P21589 27-549); test: flow cytometry on CHO-S cells transiently expressing human CD73, AF647 anti-human IgG (H+L) secondary, GeoMean
T3 construct: also called 5'-NT; human CD73 on CHO-S cells
T3 sequence: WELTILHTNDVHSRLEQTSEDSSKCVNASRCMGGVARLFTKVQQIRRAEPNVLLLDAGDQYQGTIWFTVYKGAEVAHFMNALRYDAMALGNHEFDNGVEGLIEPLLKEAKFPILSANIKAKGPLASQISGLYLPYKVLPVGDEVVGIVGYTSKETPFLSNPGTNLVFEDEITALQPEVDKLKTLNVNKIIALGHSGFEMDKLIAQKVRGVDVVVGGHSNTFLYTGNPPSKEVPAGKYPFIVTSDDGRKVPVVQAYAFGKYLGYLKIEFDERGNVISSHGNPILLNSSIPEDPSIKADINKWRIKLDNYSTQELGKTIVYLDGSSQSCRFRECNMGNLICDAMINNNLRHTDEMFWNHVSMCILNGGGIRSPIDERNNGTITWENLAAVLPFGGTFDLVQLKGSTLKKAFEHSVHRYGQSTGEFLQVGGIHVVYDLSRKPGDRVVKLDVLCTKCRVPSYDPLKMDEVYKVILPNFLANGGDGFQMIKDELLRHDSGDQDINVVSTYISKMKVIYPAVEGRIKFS
Method: The anti-CD73 antibodies were incubated with the hamster CHO-S cell line transiently expressing human or cynomolgus CD73 for 30 minutes at 4° C. The cells were washed twice and subsequently incubated for an additional 20 minutes with AF647-conjugated secondary anti-human IgG (H+L) antibody. After the washing step, antibody binding was detected using the high-throughput flow cytometer iQue Screener PLUS (Sartorius) measuring the GeoMean of AF647 signal in each well. Every concentration was assayed in triplicate and a 12-point titration curve was generated for each antibody.

B1: antibody 21127 (antibody, human IgG1, kappa, L234A L235A, V domains shown)
VH: EVQLVESGGGLVQPGRSLRLSCAASGFTFDDFAMHWVRQAPGKGLEWVSGISWNSGNIGYADSVKGRFTISRDNAKNSLYLQMNSLRAEDTALYYCAKDKSGSPYYYYGMDVWGQGTMVTVSS
VL: DIQMTQSPSSVSASVGDRVTITCRATQGISRRLAWYQQKPGKAPKLLIYAASSLQSGVPSRFSGSGSGTDFTLTISSLQPEDFATYYCQQANSFPLTFGGGTKVEIKR
notes: Fully human IgG1-LALA (L234A/L235A), kappa
**Q.** Which results are given for B1?
**A.** molecular mass of complex, Peak 2 (MW, kDa) [1]: 269 kDa; molecular mass of complex, Peak 2 (MW, kDa) [2]: 282 kDa; binding result (mouse CD73): no binding; EC50 (read off the curve) [3]: ~5 ng/mL
